Measurements from the Human Domainome abundance scans (Beltran et al. 2025).
± gives the uncertainty stated by the source.

B1: WW domain-binding protein 4, residues 8 to 43; numbered along this chain, O75554 (parent)
chain: QPKKFCDYCKCWIADNRPSVEFHERGKNHKENVAKR

Variants of: B1
Experiment: abundance fitness (aPCA) (normalised: wild type 0, dead -1); higher = more abundant; growth selection in yeast, the domain comes from the species named
Settings: Homo sapiens

Point of comparison: QPKKFCDYCKCWIADNRPSVEFHERKKNHKENVAKR [G26K], abundance fitness -0.257 ± 0.14. Against it:
- QPKKFCDYCKCWIADNRPSVTFHERGKNHKENVAKR [E21T] — within error, -0.034 ± 0.085
- QPKKFCDYCKCWIADNRPSVLFHERGKNHKENVAKR [E21L] — within error, -0.19 ± 0.069
- QPKKFCDYCKCWIADNRPSVVFHERGKNHKENVAKR [E21V] — within error, -0.289 ± 0.062
- QPKKFCDYCKCWIADNRPSVRFHERGKNHKENVAKR [E21R] — higher, -0.05 ± 0.059
- QPKKFCDYCKCWIADNRPSVDFHERGKNHKENVAKR [E21D] — within error, -0.15 ± 0.093
- QPKKFCDYCKCWIADNRPSVIFHERGKNHKENVAKR [E21I] — within error, -0.71 ± 0.36
- QPKKFCDYCKCWIADNRPSVWFHERGKNHKENVAKR [E21W] — within error, -0.295 ± 0.07
- QPKKFCDYCKCWIADNRPSVNFHERGKNHKENVAKR [E21N] — within error, -0.312 ± 0.11
- QPKKFCDYCKCWIADNRPSVMFHERGKNHKENVAKR [E21M] — within error, -0.332 ± 0.11
- QPKKFCDYCKCWIADNRPSVFFHERGKNHKENVAKR [E21F] — within error, -0.437 ± 0.25
- QPKKFCDYCKCWIADNRPSVPFHERGKNHKENVAKR [E21P] — within error, -0.467 ± 0.096
- QPKKFCDYCKCWIADNRPSVQFHERGKNHKENVAKR [E21Q] — within error, -0.074 ± 0.085
- QPKKFCDYCKCWIADNRPSVHFHERGKNHKENVAKR [E21H] — within error, -0.475 ± 0.32
- QPKKFCDYCKCWIADNRPSVSFHERGKNHKENVAKR [E21S] — within error, -0.167 ± 0.074
- QPKKFCDYCKCWIADNRPSVKFHERGKNHKENVAKR [E21K] — higher, 0.007 ± 0.07
- QPKKFCDYCKCWIADNRPSVEFHERQKNHKENVAKR [G26Q] — higher, 0.038 ± 0.085
- QPKKFCDYCKCWIADNRPSVEFHERCKNHKENVAKR [G26C] — within error, -0.197 ± 0.097
- QPKKFCDYCKCWIADNRPSVEFHERSKNHKENVAKR [G26S] — higher, 0.04 ± 0.067
- QPKKFCDYCKCWIADNRPSVEFHERTKNHKENVAKR [G26T] — within error, -0.123 ± 0.089
- QPKKFCDYCKCWIADNRPSVEFHERLKNHKENVAKR [G26L] — within error, -0.28 ± 0.079
- QPKKFCDYCKCWIADNRPSVEFHERWKNHKENVAKR [G26W] — within error, -0.277 ± 0.068
- QPKKFCDYCKCWIADNRPSVEFHERIKNHKENVAKR [G26I] — lower, -1 ± 0.28
- QPKKFCDYCKCWIADNRPSVEFHERPKNHKENVAKR [G26P] — lower, -0.547 ± 0.11
- QPKKFCDYCKCWIADNRPSVEFHERVKNHKENVAKR [G26V] — within error, -0.18 ± 0.068
- QPKKFCDYCKCWIADNRPSVEFHERMKNHKENVAKR [G26M] — higher, 0.057 ± 0.091
- QPKKFCDYCKCWIADNRPSVEFHEREKNHKENVAKR [G26E] — higher, 0.153 ± 0.1
- QPKKFCDYCKCWIADNRPSVEFHERHKNHKENVAKR [G26H] — higher, 0.08 ± 0.15
- QPKKFCDYCKCWIADNRPSVEFHERRKNHKENVAKR [G26R] — within error, -0.228 ± 0.059
- QPKKFCDYCKCWIADNRPSVEFHERAKNHKENVAKR [G26A] — within error, -0.072 ± 0.058
- QPKKFCDYCKCWIADNRPSVEFHERDKNHKENVAKR [G26D] — higher, 0.015 ± 0.13
- QPKKFCDYCKCWIADNRPSVEFMERGKNHKENVAKR [H23M] — lower, -0.569 ± 0.17
- QPKKFCDYCKCWIADNRPSVEFGERGKNHKENVAKR [H23G] — lower, -0.689 ± 0.063
- QPKKFCDYCKCWIADNRPSVEFNERGKNHKENVAKR [H23N] — lower, -0.967 ± 0.27
- QPKKFCDYCKCWIADNRPSVEFLERGKNHKENVAKR [H23L] — lower, -0.838 ± 0.082
- QPKKFCDYCKCWIADNRPSVEFVERGKNHKENVAKR [H23V] — lower, -0.895 ± 0.094
- QPKKFCDYCKCWIADNRPSVEFEERGKNHKENVAKR [H23E] — lower, -0.6 ± 0.15
- QPKKFCDYCKCWIADNRPSVEFPERGKNHKENVAKR [H23P] — within error, -0.443 ± 0.11
- QPKKFCDYCKCWIADNRPSVEFIERGKNHKENVAKR [H23I] — lower, -0.884 ± 0.41
- QPKKFCDYCKCWIADNRPSVEFWERGKNHKENVAKR [H23W] — lower, -0.601 ± 0.12
- QPKKFCDYCKCWIADNRPSVEFCERGKNHKENVAKR [H23C] — lower, -0.561 ± 0.11
- QPKKFCDYCKCWIADNRPSVEFFERGKNHKENVAKR [H23F] — within error, -0.633 ± 0.4
- QPKKFCDYCKCWIADNRPSVEFRERGKNHKENVAKR [H23R] — lower, -0.724 ± 0.061
- QPKKFCDYCKCWIADNRPSVEFTERGKNHKENVAKR [H23T] — lower, -0.717 ± 0.11
- QPKKFCDYCKCWIADNRPSVEFKERGKNHKENVAKR [H23K] — within error, -0.44 ± 0.15
- QPKKFCDYCKCWIADNRPSVEFAERGKNHKENVAKR [H23A] — lower, -0.739 ± 0.083
- QPKKFCDYCKCWIADNRPSVEFDERGKNHKENVAKR [H23D] — within error, -0.387 ± 0.13
- QPKKFCDYCKCWIADNRPSVEFSERGKNHKENVAKR [H23S] — lower, -0.549 ± 0.076
- QPKKFCDYCKCWIADNRPSVEFHERGGNHKENVAKR [K27G] — within error, -0.096 ± 0.057
- QPKKFCDYCKCWIADNRPSVEFHERGWNHKENVAKR [K27W] — within error, -0.218 ± 0.064
- QPKKFCDYCKCWIADNRPSVEFHERGMNHKENVAKR [K27M] — within error, -0.115 ± 0.12
- QPKKFCDYCKCWIADNRPSVEFHERGENHKENVAKR [K27E] — higher, 0.036 ± 0.073
- QPKKFCDYCKCWIADNRPSVEFHERGFNHKENVAKR [K27F] — within error, -0.189 ± 0.13
- QPKKFCDYCKCWIADNRPSVEFHERGSNHKENVAKR [K27S] — within error, -0.128 ± 0.1
- QPKKFCDYCKCWIADNRPSVEFHERGPNHKENVAKR [K27P] — within error, -0.226 ± 0.11
- QPKKFCDYCKCWIADNRPSVEFHERGQNHKENVAKR [K27Q] — within error, -0.032 ± 0.096
- QPKKFCDYCKCWIADNRPSVEFHERGRNHKENVAKR [K27R] — within error, -0.08 ± 0.061
- QPKKFCDYCKCWIADNRPSVEFHERGANHKENVAKR [K27A] — higher, 0.026 ± 0.069
- QPKKFCDYCKCWIADNRPSVEFHERGLNHKENVAKR [K27L] — within error, -0.114 ± 0.061
- QPKKFCDYCKCWIADNRPSVEFHERGDNHKENVAKR [K27D] — within error, -0.192 ± 0.098
- QPKKFCDYCKCWIADNRPSVEFHPRGKNHKENVAKR [E24P] — lower, -0.915 ± 0.091
- QPKKFCDYCKCWIADNRPSVEFHFRGKNHKENVAKR [E24F] — within error, -0.181 ± 0.32
- QPKKFCDYCKCWIADNRPSVEFHDRGKNHKENVAKR [E24D] — within error, -0.372 ± 0.15
- QPKKFCDYCKCWIADNRPSVEFHARGKNHKENVAKR [E24A] — within error, -0.303 ± 0.072
- QPKKFCDYCKCWIADNRPSVEFHRRGKNHKENVAKR [E24R] — lower, -0.497 ± 0.06
- QPKKFCDYCKCWIADNRPSVEFHKRGKNHKENVAKR [E24K] — within error, -0.187 ± 0.14
- QPKKFCDYCKCWIADNRPSVEFHMRGKNHKENVAKR [E24M] — within error, -0.451 ± 0.15
- QPKKFCDYCKCWIADNRPSVEFHLRGKNHKENVAKR [E24L] — lower, -0.614 ± 0.098
